# Test results from patent US20020164738.
# T1: MAGE-3 protein purified from E. coli (pNB202, pRSET-A, N-terminal His tag)
# T1 chain: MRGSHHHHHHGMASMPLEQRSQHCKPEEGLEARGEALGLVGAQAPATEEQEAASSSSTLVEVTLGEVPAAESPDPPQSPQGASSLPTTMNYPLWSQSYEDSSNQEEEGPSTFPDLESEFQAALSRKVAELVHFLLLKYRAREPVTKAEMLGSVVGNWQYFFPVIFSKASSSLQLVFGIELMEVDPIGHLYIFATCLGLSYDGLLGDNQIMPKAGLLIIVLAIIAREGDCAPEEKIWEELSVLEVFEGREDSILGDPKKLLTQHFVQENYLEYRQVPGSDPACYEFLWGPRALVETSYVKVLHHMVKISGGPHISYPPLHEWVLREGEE
# B1: pro-caspase-12 (48 kDa) synthesized in vitro, radioactively labeled (protein)
# chain: MAARRTHERDPIYKIKGLAKDMLDGVFDDLVEKNVLNGDELLKIGESASFILNKAENLVENFLEKTDMAGKIFAGHIANSQEQLSLQFSNDEDDGPQKICTPSSPSESKRKVEDDEMEVNAGLAHESHLMLTAPHGLQSSEVQDTLKLCPRDQFCKIKTERAKEIYPVMEKEGRTRLALIICNKKFDYLFDRDNADTDILNMQELLENLGYSVVLKENLTAQEMETELMQFAGRPEHQSSDSTFLVFMSHGILEGICGVKHRNKKPDVLHDDTIFKIFNNSNCRSLRNKPKILIMQACRGRYNGTIWVSTNKGIATADTDEERVLSCKWNNSITKAHVETDFIAFKSSTPHNISWKVGKTGSLFISKLIDCFKKYCWCYHLEEIFRKVQHSFEVPGELTQMPTIERVSMTRYFYLFPGN
# Target: T1, MAGE-3 protein purified from E. coli …
protein,measurement,value
B1,"cleavage of radioactively labeled pro-caspase-12 by mature caspase-12 (SDS-PAGE, autoradiography)",Addition of 12 µg of MAGE-3 inhibited the cleavage reaction by caspase-12 almost completely
